Reference: patent US7579150B1, “Mobile RNA acts as a signal to regulate plant growth and development” (Iowa State University Research Foundation, Inc., priority 2004, dated 2009)

Test system: POTH1
Test: Yeast two-hybrid interaction with POTH1 (nutritional selection, beta-galactosidase)
Assay type: cell-based, potato
Details: yeast strain AH109, nutritional markers and lacZ
Source text: The Matchmaker two-hybrid system (Clontech, CA) was used for the yeast two-hybrid screen. Yeast transformation and plasmid rescue into DH5-a E. coli cells were according to the manufacturer's instructions. Full-length POTH1 was cloned into the pBridge (Clontech, CA) vector and used as bait to screen the potato (S. tuberosum ‘Desireé’) stolon cDNA library in pAD-GAL4-2.1 (Stratagene, Calif.). Positive interactions were confirmed by cotransforming yeast strain AH109 with each purified pAD plasmid and pBridge: POTH1 and plating on -leucine/-tryptophan (transformation control) and -leucine/-tryptophan/-histidine/-adenine (selection) nutrient medium. Induction of the AH109 reporter gene, lacZ, was measured with a yeast β-galactosidase assay kit (Pierce Chemicals). β-galactosidase activity (FIG. 9B) was determined from a known density of yeast cells and calculated as 1000×OD420/time of color reaction (minutes)×volume of yeast culture (ml)×OD600.
The StBEL-05 deletion constructs were amplified by PCR, then cloned into the vector, pGAD, in-frame with the GAL4 activation domain. POTH1 deletion constructs were amplified by PCR, and cloned into pBridge (Clontech) in-frame with the GAL4 binding domain. Sequencing of selected cDNAs and constructs was performed at the Iowa State University DNA Facility. For deletion analysis, modified constructs of POTH1 were cloned into the pBridge vector for fusion with the DNA-binding domain of GAL4 (FIG. 10A). For StBEL-05, constructs were cloned into the pGAD vector for fusion with the activating domain of GAL4 (FIG. 10B). Deletion constructs were made from both the amino and carboxy termini. These mutants were then tested for interaction in the yeast two-hybrid system by cotransforming into yeast strain AH109 with the corresponding full-length partner (StBEL-05 in pGAL4 or POTH1 in pBridge). All constructs were sequenced to verify that they were in-frame. Positive interactions were verified for lacZ induction by using a β-galactosidase assay (Pierce Chemical Company). For POTH1, seven deletion constructs were tested (FIG. 10A). For the BEL TFs, a fusion construct of StBEL-05 (653 aa of StBEL-05 sequence) and nine deletion constructs were tested (FIG. 10B).

Sequence of POTH1 (as listed by the source): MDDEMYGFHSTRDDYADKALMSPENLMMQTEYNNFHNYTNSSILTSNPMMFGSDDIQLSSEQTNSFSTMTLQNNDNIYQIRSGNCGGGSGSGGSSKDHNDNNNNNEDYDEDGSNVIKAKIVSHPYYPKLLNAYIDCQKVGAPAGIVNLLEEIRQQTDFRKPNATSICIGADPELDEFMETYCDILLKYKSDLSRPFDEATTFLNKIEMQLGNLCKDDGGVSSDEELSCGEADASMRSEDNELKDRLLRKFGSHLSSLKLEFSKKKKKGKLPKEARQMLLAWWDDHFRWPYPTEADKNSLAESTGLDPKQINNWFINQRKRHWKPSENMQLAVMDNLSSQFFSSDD

| interaction with POTH1 | Molecule |
| --- | --- |
| showed selective interaction | StBEL-29: BEL transcription factor from Solanum tuberosum, SEQ ID NO:12 (protein, listed as Solanum tuberosum) QGLSLSLSSSQQPGFGNFTAARELVSSPSGSASASGIQQQQQQQQSISSVPLSSKYMKAAQELLDEVVNVGKSMKSTNSTDVVVNNDVKKSKNMGDMDGQLDGVGADKDGAPTTELSTGERQEIQMKKAKLVNMLDEVEQRYRHYHHQMQSVIHWLEQAAGIGSAKTYTALALQTISKQFRCLKDAIIGQIRSASQTLGEEDSLGGKIEGSRLKFVDNQLRQQRALQQLGMIQHNAWRPQRGLPERAVSVLRAWLFEHFLHPYPKDSDKMMLAKQTGLTRSQVSNWFINARVRLWKPMVEEMYLEEIKEHEQNGLGQEKTSKLGEQNEDSTTSRSIATQDKSPGSDSQNKSFVSKQDNHLPQHNPASPMPDVQRHFHTPIGMTIRNQSAGFNLIGSPEIESINITQGSPKKPRNNEMLHSPNSIPSINMDVKPNEEQMSMKFGDDRQDRDGFSLMGGPMNFMGGFGAYPIGEIARFSTEQFSAPYSTSGTVSLTLGLPHNENLSMSATHHSFLPIPTQNIQIGSEPNHEFGSLNTPTSAHSTSSVYETFNIQNRKRFAAPLLPDFVA |
| interaction with POTH1 | pAD5-9: StBEL-05 deletion construct, aa 1 through 315 (protein, left off: large carriers) MNPNNYMQGYTTSDTQQQQQLLFLNSSPAASNALCHANIQHAPLQQQHFVGVPLPAVSLHDQINHHGLLQRMWNNQDQSQQVIVPSSTGVSATSCGGITTDLASQLAFQRPIPTPQHRQQQQQQGGLSLSLSPQLQQQISFNNNISSSSPRTNNVTIRGTLDGSSSNMVLGSKYLKAAQELLDEVVNIVGKSIKGDDQKKDNSMNKESMPLASDVNTNSSGGGESSSRQKNEVAVELTTAQRQELQMKKAKLLAMLEEVEQRYRQYHHQMQIIVLSFEQVAGIGSAKSYTQLALHAISKQFRCLKDAIAEQVKAT |
| showed selective interaction | StBEL-30: BEL transcription factor from Solanum tuberosum, SEQ ID NO:14 (protein, listed as Solanum tuberosum) MATYFPSPNNQRDADQTFQYFRQSLPESYSEASNAPENMMVFMNYSSSGAYSDMLTGTSQQQHNCIDIPSIGATPFNTSQQEILSNLGGSQMGIQDFSSWRDSRNEMLADNVFQVAQNVQGQGLSLSLGSNIPSGIGISHVQSQNPNQGGGFNMSFGDGDNSQPKEQRNADYFPPDNPGRDLDAMKGYNSPYGTSSIARTIPSSKYLKAAQYLLDEVVSVRKAIKEQNSKKELTKDSRESDVDSKNISSDTPANGGSNPHESKNNQSELSPTEKQEVQNKLAKLLSMLDEIDRRYRQYYHQMQIVVSSFDVVAGEGAAKPYTALALQTISRHFRCLRDAICDQIRASRRSLGEQDASENSKAIGISRLRFVDHHIRQQRALQQLGMMQQHAWRPQRGLPESSVSVLRAWLFEHFLHPYPKDSDKIMLARQTGLTRSQVSNWFINARVRLWKPMVEEMYKEEAGDAKIDSNSSSDVAPRLATKDSKVEERGELHQNAASEFEQYNSGQILESKSNHEADVEMEGASNAETQSQSGMENQTGEPLPAMDNCTLFQDAFVQSNDRFSEFGSFGSGNVLPNGVSLTLGLQQGEGSNLPMSIETHVSYVPLRADDMYSTAPTTMVPETAEFNCLDSGNRQQPFWLLPSAT |

The next lines start with the molecule.

| Molecule | interaction with POTH1 |
| --- | --- |
| StBEL-22: BEL transcription factor from Solanum tuberosum, SEQ ID NO:10 (protein, listed as Solanum tuberosum) TSVYETAGLLSEMFNFQTTSTAATELLQNQLSNNYRHPNQQPHHQPPTREWFGNRQEIVVGGSLQVTFGDTKDDVNAKVLLSNRDSVTDYYQRQHNQVPSINTAESMQLFLMNPQPSSPSQSTPSTLHQGFSSPVGGHFSQFMCGGASTSSNPIGGVNVIDQGQGLSLSLSSTLQHLEASKVEDLRMNSGGEMLFFNQESQNHHNIGFGSSLGLVNVLRNSKYVKATQELLEEFCCVGKGQLFKKINKVSRNNNTSTSPIINPSGSNNNNSSSSKAIIPPNLSTAERLDHQRRKVKLLSMLDEVEKRYNHYCEQMQMVVNSFDLVMGFGAAVPYTALAQKAMSRHFKCLKDGVAAQLKKTCEALGEKDASSSSGLTKGETPRLKVLEQSLRQQRAFQQMGMMEQEAWRPQRGLPERSVNILRAWLFEHFLHPYPSDADKHLLARQTGLSRNQVANWFINARVRLWKPMVEEMYQREVNEDDVDDMQENQNSTNTQIPTPNIIITTNSNITETKSAATATIASDKKPQINVSEIDPSIVAMNTHYSSSMPTQLTNFPTIQDESDHILYRRSGAEYGTTNMASNSEIGSNMITFGTTTASDVSLTLGLRHAGNLPENTHFSG | showed selective interaction |
| StBEL-11: BEL transcription factor from Solanum tuberosum, SEQ ID NO:4 (protein, listed as Solanum tuberosum) MTFRSSLPLDLREISTTNHQVGILSSSPLPSPGTNTNNINHTRGLGASSSFSISNGMILGSKYLKVAQDLLDEVVNVGKNIKLSDGLESGAKEKHKLDNELISLASDDVESSSQKNSGVELTTAQRQELQMKKAKLVSMLDEVDQRYRQYHHQMQMIATSFEQTTGIGSSKSYTQLALHTISKQFRCLKDAISGQIKDTSKTLGEEENIGGKIEGSKLKFVDHHLRQQRALQQLGMMQTNAWKPQRGLPERAVSVLRAWLFEHFLHPYPKDSDKIILAKQTGLTRSQVSNWFINARVRLWKPMVEEMYMEEVKKNNQEQNIEPNNNEIVGSKSSVPQEKLPISSNIIHNASPNDISTSTISTSPTGGGGSIPTQTVAGFSFIRSLNMENIDDQRNNKKARNEMQNCSTSTILSMEREIINKVVQDETIKSEKFNNTQTRECYSLMTPNYTMDDQFGTRFNNQNHEQLATTTTFHQGNGHVSLTLGLPPNSENQHNYIGLENHYNQPTHHPNISYENIDFQSGKRYATQLLQDFVS | showed selective interaction |
| StBEL-13: BEL transcription factor from Solanum tuberosum, SEQ ID NO:6 (protein, listed as Solanum tuberosum) MVMGGGASSQQLGYAKNHTPNVAESMQLFLMNPQPRSPSPSPPNSTSSTLHMLLPNPSSTSTLQGFPNPAEGSFGQFITWGNGGASAATATHHLNAQNEIGGVNVVESQGLSLSLSSSLQHKAEELQMSGEAGGMMFFNQGGSSTSGQYRYKNLNMGGSGVSPNIHQVHVGYGSSLGVVNVLRNSKYAKAAQELLEEFCSVGRGKLKKTNNKAAANNPNTNPSGANNEASSKDVPTLSAADRIEHQRRKVKLLSMVDEVDRRYNHYCEQMQMVVNSFDLVMGFGTAVPYTALAQKAMSRHFRCLKDAIGAQLKQSCELLGEKDAGNSGLTKGETPRLKMLEQSLRQQRAFHQMGMMEQEAWRPQRGLPERSVNILRAWLFEHFLHPYPSDADKHLLARQTGLSRNQVSNWFINARVRLWKPMVEDMYQQEAKDEDGDGDEKSQSQNSGNNIIAQTPTPNSLTNTSSTNMTTTTAPTTTTALAAAETGTAATPITVTSSKRSQINATDSDPSLVAINSFSENQATFPTNIHDPDDCRRGNLSGDDGTTTHDHMGSTMIRFGTTAGDVSLTLGLRHAGNLPENTHFFG | showed selective interaction |
| StBEL-14: BEL transcription factor from Solanum tuberosum, SEQ ID NO:8 (protein, listed as Solanum tuberosum) MVNHQLQNFETNPEMYNLSSTTSSMDQMIGFPPNNNNPHHVLWKGNFPNKINGVDDDDHGPSSSKNIISEQFYQHGSHENMLTTTTTHHDDHQGSWHHDNNRTLLVDDPSMRCVFPCEGNERPSHGLSLSLCSSNPSSIGLQSFELRHQDLQQGLIHDGFLGKSTNIQQGYFHHHHQVRDSKYLGPAQELLSEFCSLGIKKNNDHSSSKVLLKQHESTASTSKKQLLQSLDLLELQKRKTKLLQMLEEVDRRYKHYCDQMKAVVSSFEAVAGNGAATVYSALASRAMSRHFRCLRDGIVAQIKATKMAMGEKDSTSTLIPGSTRGETPRLRLLDQTLRQQKAFQQMNMMETHPWRPQRGLPERSVSVLRAWLFEHFLHPYPSDVDKHILARQTGLSRSQVSNWFINARVRLWKPMVEEMYLEETKEEENVGSPDGSKALIDDMTIHQSHIDHHQADQKPNLVRIDSECISSIINHQPHEKNDQNYGVIRGGDQSFGAIELDFSTNIAYGTSGGDHHHHGGGVSLTLGLQQHGGSGGSSMGLTTFSSQPSHNQSSLFYPRDDDQVQYSSLLDSENQNLPYRNLDGGTTSS | showed selective interaction |
